Laboratory results: US7666414B2, “Methods for treating prostate cancer using modified antibodies to prostate-specific membrane antigen” (Cornell Research Foundation, Inc., priority 2001, dated 2010)
Numbering of substitutions follows the chain as printed. Like-named read-outs stand apart in the source and are kept apart here. Values belong to the molecule of their own block, whether it stands above or below them.

Experiments:
[1] = molecular target: T1, LNCap membrane preparation (Homo sapiens, UniProt Q04609); test: ELISA for binding of J415 deimmunized antibodies to LNCap membrane preparation
T1 construct: ELISA plates were coated with LNCap membrane preparation; endogenous in cells; host or cells: LNCap (LNCaP) human prostate carcinoma cells, membrane preparation
T1 sequence (Q04609 whole entry): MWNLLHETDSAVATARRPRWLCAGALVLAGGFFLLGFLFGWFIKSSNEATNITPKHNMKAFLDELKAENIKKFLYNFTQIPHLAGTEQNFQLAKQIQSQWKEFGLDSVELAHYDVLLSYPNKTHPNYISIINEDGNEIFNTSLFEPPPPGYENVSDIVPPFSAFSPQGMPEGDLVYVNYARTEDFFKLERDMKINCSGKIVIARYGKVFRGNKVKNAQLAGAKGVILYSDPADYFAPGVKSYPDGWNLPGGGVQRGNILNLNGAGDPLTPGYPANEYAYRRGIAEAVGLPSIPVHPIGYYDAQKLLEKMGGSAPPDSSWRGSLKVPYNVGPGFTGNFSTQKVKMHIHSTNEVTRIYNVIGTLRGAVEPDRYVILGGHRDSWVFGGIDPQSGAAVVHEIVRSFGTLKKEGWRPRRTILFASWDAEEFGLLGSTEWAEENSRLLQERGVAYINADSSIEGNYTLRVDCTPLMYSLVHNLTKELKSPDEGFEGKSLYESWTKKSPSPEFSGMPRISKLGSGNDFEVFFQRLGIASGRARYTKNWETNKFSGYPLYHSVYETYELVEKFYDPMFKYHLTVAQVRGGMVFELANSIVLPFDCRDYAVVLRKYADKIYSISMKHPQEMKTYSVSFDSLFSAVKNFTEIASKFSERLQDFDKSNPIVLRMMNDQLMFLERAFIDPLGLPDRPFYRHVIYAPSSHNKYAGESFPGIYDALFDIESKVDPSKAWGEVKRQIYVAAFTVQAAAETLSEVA
Method: The J415 deimmunized antibodies (including various combinations of the deimmunized light chain and heavy chain subunits) were tested in an ELISA for binding to LNCap membrane preparation following the protocol as detailed above. ELISA plates were coated with LNCap membrane preparation and blocked with 5% BSA in phosphate buffered saline. Doubling dilutions of the J415 chimeric antibody (murine variable heavy and light chain regions fused to human constant heavy and light chain regions, respectively) and the deimmunized antibodies were applied. Detection was with horseradish peroxidase conjugated goat anti-human IgG and donkey anti-mouse for chimeric and mouse antibodies respectively. Color was developed with o-phenylene diamine substrate.

[2] = test system: PSMA-positive human LNCaP tumors; test: Biodistribution of 131I labeled MAbs in nude mice bearing LNCaP tumors; settings: mouse, in vivo
Method: (§1) Prior to use, the cells were trypsinized, counted and suspended in Matrigel (Collaborative Biomedical Products, Bedford, Mass.). Nu/Nu Balb C mice 8-10 weeks of age were inoculated, in the right and left flanks, with a suspension of 5×10^6 LNCaP cells in Matrigel (BD Biosciences, Bedford Mass.). After a period of 14-18 days, tumors (100-300 mg) had developed. The PSMA-negative DU145 and PC3 cells were implanted in nude mice in an identical manner.
(§2) The PSMA-positive and PSMA-negative tumor bearing mice were injected, via the tail vein, with 80 KBq of the iodinated MAb (400 MBq/mg) in 200 μL of PBS (pH 7.4, 0.2% BSA). Groups of animals (3-8/group) were sacrificed after 2, 4 or 6 days. The major organs and tumors were recovered. The tissue samples were weighed and counted, with appropriate standards in an automatic NaI(Tl) counter. These measured relative activity data (cpm) were background corrected and expressed as a percentage of the injected dose per gram (% ID/g). […] J415, J591 and 7E11 were labeled with ^111In (100 MBq/mg). 80 KBq of the ^111In labeled MAbs were injected in groups of animals. The % ID/g in various organs and tumor tissues was determined at 2-6 days post injection in a similar way as described for ^131I labeled MAbs.

[3] = test system: PSMA-positive human LNCaP tumors; design: species or system nude mice; settings: mouse, in vivo
Method: as §1, §2
For the imaging studies, animals were injected with 2 MBq of ^111In-DOTA-J591. […]

[4] = molecular target: prostate specific membrane antigen (Homo sapiens, UniProt Q04609); test: Competitive binding sites on PSMA; settings: relative to J591, J533, E99 site
prostate specific membrane antigen, sequence (Q04609 whole entry): as above
Excerpt: To kill or ablate normal, benign hyperplastic, and cancerous prostate epithelial cells, a first antibody, e.g., a modified antibody, can be conjugated with a prodrug which is activated only when in close proximity with a prodrug activator. The prodrug activator is conjugated with a second antibody, e.g., a second modified antibody according to the present invention, preferably one that binds to a non-competing site on the prostate specific membrane antigen molecule. Whether two modified antibodies bind to competing or non-competing binding sites can be determined by conventional competitive binding assays. […] Monoclonal antibody J415, on the other hand, binds to a binding site that is non-competing with the site to which J591, J533, and E99 bind. Thus, for example, the first modified antibody can be one of J591, J533, and E99, and the second modified antibody can be J415. Alternatively, the first modified antibody can be J415, and the second modified antibody can be one of J591, J533, and E99. Drug-prodrug pairs suitable for use in the practice of the present invention are described in Blakely et al., “ZD2767, an Improved System for Antibody-directed Enzyme Prodrug Therapy That Results in Tumor Regressions in Colorectal Tumor Xenografts,” (1996) Cancer Research, 56:3287-3292, which is hereby incorporated by reference.

binding to LNCap as compared to the chimeric antibody [1]: equivalent binding
B1: DIVH4/DIVK5: deimmunized J415 heavy chain version 4 combined with deimmunized J415 light chain version 5 (antibody, V domains shown)
VH: EVKLEESGGGLVQPGGSMKISCVASGFTFSNYWMNWVRQSPEKGLEWVAEIRSQSNNFATHYAESVKGRVIISRDDSKSSVYLQMNSLRAEDTAVYYCTRRWNNFWGQGTTVTVSS
VL: NIVMTQFPKSMSASAGERMTLTCKASENVGTYVSWYQQKPTQSPKMLIYGASNRFTGVPDRFSGSGSGTDFILTISSVQAEDLVDYYCGQSYTFPYTFGGGTKLEMK

binding site on the prostate specific membrane antigen molecule [4]: non-competing
B2: J415: murine monoclonal antibody to human PSMA, hybridoma ATCC HB-12109 (antibody, V domains shown)
VH: B1 VH with I20L, S87N, A94G, V95I, V112L
VL: B1 VL with A13I, A15V, M19V, T41E, S63T, G68A, A80T
blood activity [2]: significantly lower compared to that of 7E11
tumor uptake [2]: 12.2±3.24 % injected dose/gram
tumor/blood and tumor/muscle ratios [2]: significantly higher
blood activity [3]: 2.63±0.23 % ID/g
tumor/blood ratios [3]: significantly higher

binding site on the prostate specific membrane antigen molecule [4]: bind to competing binding sites
B3: J533: murine monoclonal antibody to human PSMA, hybridoma ATCC HB-12127 (antibody, V domains shown)
VH: EVQLQQSGPELVKPGASVKMSCKASGYTFTGYVMHWVKQKPGQVLEWIGYINPYNDVTRYNGKFKGKATLTSDKYSSTAYMELSGLTSEDSAVYYCARGENWYYFDSWGRGATLTVSS
VL: DIVLTQSPASLAVSLGQRATISCRASESIDSYDNTFMHWYQQKPGQPPNLLIFRASILESGIPARFSGSGSGTDFTLTIYPVEADDVATYYCHQSIEDPYTFGGGTKLEIK

binding site on the prostate specific membrane antigen molecule [4]: bind to competing binding sites
B4: E99: murine monoclonal antibody to human PSMA, hybridoma ATCC HB-12101 (antibody, V domains shown)
VH: QVQLKESGPGLVASSQSLSITCTVSGFSLTAYGINWVRQPPGKGLEWLGVIWPDGNTDYNSTLKSRLNIFKDNSKNQVFLKMSSFQTDDTARYFCARDSYGNFKRGWFDFWGQGTTLTVSS
VL: NIVMTQSQKFMSTSPGDRVRVTCKASQNVGSDVAWYQAKPGQSPRILIYSTSYRYSGVPDRFTAYGSGTDFTLTITNVQSEDLTEYFCQQYNSYPLTFGAGTKLELK
